Assay results from PMC6736995, “Insights Into Enhanced Complement Activation by Structures of Properdin and Its Complex With the C-Terminal Domain of C3b” (Frontiers in Immunology, 2019).
Values belong to the molecule of their own block, whether it stands above or below them.

Assays:
C3b (Homo sapiens) = C3b (Homo sapiens) (UniProt P01024); conditions: cited from earlier work
[1] = target: T1, C3b, biotinylated at the free cysteine of the hydrolysed thioester (human, UniProt P01024 23-667; P01024 749-1663, biotin (EZ-Link Maleimide-PEG2-Biotin) on the free cysteine that is generated after hydrolysis of the reactive thioester); experiment: SPR; formation of C3bB and C3bBb on the chip: 100 nM FB^dgf‡ injected for 5 min over biotinylated C3b, then 100 nM FD for 5 min; buffer with 5 mM MgCl2; 25°C; conditions: both partners purified
T1 construct: complement C3 beta chain, human; C3b alpha' chain, human; Coupled to a streptavidin chip through the biotin; also called C3b coated chip; source: generated from C3 (purified from human plasma) with FB and FD, biotinylated, purified by SEC
T1 sequence (P01024 23-667, one chain of several): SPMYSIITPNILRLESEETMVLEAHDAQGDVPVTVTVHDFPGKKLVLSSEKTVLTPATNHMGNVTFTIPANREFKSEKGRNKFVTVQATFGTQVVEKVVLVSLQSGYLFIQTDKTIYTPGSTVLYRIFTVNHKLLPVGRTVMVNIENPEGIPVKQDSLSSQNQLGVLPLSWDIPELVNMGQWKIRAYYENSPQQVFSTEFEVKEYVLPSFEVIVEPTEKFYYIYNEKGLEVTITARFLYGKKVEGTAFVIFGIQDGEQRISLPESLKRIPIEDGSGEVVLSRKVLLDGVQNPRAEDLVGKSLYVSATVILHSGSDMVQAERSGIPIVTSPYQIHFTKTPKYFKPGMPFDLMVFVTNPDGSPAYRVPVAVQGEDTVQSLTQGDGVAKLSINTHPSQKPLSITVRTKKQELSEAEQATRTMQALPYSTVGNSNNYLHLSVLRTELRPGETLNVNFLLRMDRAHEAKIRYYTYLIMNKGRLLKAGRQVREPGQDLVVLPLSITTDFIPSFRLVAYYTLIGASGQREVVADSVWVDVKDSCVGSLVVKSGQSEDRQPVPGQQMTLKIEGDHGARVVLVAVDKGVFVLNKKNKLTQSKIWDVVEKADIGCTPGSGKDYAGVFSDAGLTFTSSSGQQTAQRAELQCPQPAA

[2] = target: T1, C3b, biotinylated at the free cysteine …; experiment: SPR; biotinylated C3b on a SensEye P-Strep chip; P^N12/456 injected 1.2 × 10^-3 to 10 μM; low ionic strength, 20 mM HEPES pH 7.4, 0.005% Tween-20, 50 mM NaCl; 25°C; equilibrium end-point fit; conditions: both partners purified
[3] = target: T1, C3b, biotinylated at the free cysteine …; experiment: SPR; biotinylated C3b on a SensEye P-Strep chip (IBIS-MX96); P^N12/456 injected 4.9 × 10^-3 to 40 μM in 14 2-fold steps; 20 mM HEPES pH 7.4, 0.005% Tween-20, 150 mM NaCl; 25°C; equilibrium end-point fit; conditions: both partners purified
[4] = target: T2, C3 pro-convertase C3bB^dgf‡ generated on a C3b coated chip (human, UniProt P01024 23-667; P01024 749-1663; P00751 26-764, S699A | D279G | N285D, biotin (EZ-Link Maleimide-PEG2-Biotin) on the free cysteine that is generated after hydrolysis of the reactive thioester); experiment: SPR; C3bB^dgf‡ or C3bBb^dgf‡ generated on a C3b coated chip before each injection; P^N12/456 injected (2.4 × 10^-4 to 2 μM on C3bB, 1.2 × 10^-4 to 1 μM on C3bBb); 20 mM HEPES pH 7.4, 0.005% Tween-20, 150 mM NaCl, 5 mM MgCl2; 25°C; equilibrium end-point fit; conditions: both partners purified
T2 construct: complement C3 beta chain, human; C3b alpha' chain, human; source: formed on the SPR chip: 100 nM FB^dgf‡ injected for 5 min over biotinylated C3b, 5 mM MgCl2; copies: + +
T2 sequence (P01024 23-667, stated change not applied, one chain of several): as the sequence (P01024 23-667, one chain of several) above

C3 convertase C3bBb^dgf‡ = target: T3, C3 convertase C3bBb^dgf‡ (human, UniProt P01024 23-667; P01024 749-1663; P00751 260-764, S699A | D279G | N285D, biotin (EZ-Link Maleimide-PEG2-Biotin) on the free cysteine that is generated after hydrolysis of the reactive thioester); experiment: as above; conditions: both partners purified
T3 construct: complement C3 beta chain, human; C3b alpha' chain, human; In the convertase stability assay (functional rows) the same complex was formed in solution from C3b that was not biotinylated; source: formed on the SPR chip: FB^dgf‡ (100 nM, 5 min) then FD (100 nM, 5 min) over biotinylated C3b, 5 mM MgCl2; copies: + +
T3 sequence (P01024 23-667, stated change not applied, one chain of several): as the sequence (P01024 23-667, one chain of several) above

[5] = target: T4, P^N1′/456, biotinylated monomerized properdin (complex of P^N1′ with P^456) (human, UniProt P27918 28-134; P27918 256-469, biotinylated with EZ-Link Maleimide-PEG2-Biotin as described for C3b (site not stated)); experiment: SPR; biotinylated P^N1′/456 on a SensEye P-Strep chip; C3/C3b-CTC injected 2.4 × 10^-2 to 200 μM (200 μM point left out as an outlier); 20 mM HEPES pH 7.4, 0.005% Tween-20, 150 mM NaCl; 25°C; equilibrium end-point fit; conditions: both partners purified
T4 construct: N-terminal Gly-Ser cloning scar from the BamHI site; properdin, human, P^N1′, res; 28-134; includes an additional Cys-Pro (res. 133-134) at the C-terminus of TSR1; C-terminal extension of three alanines from the NotI site; 256-469 (TSR4, TSR5, TSR6); The maleimide-biotin is surmised to sit on a free cysteine at the C-terminus of P^N1′ (Cys132/Cys133); source: HEK293-EBNA, co-expressed, purified …

Chain of C3b (Homo sapiens) (P01024 23-667): as the sequence (P01024 23-667, one chain of several) above

Molecule: Properdin single vertices (from UniProt P27918)
- Kd (C3b (Homo sapiens)): 7.8 µM

B3: C3/C3b-CTC domain (C-terminal C345c domain of C3/C3b) (domain or fragment, human)
chain: GSNCFIQKSDDKVTLEERLDKACEPGVDYVYKTRLVKVQLSNDFDEYIMAIEQTIKSGSDEVQVGQQRTFISPIKCREALKLEEKKHYLMWGLSSDFWGEKPNLSYIIGKDTWVEHWPEEDECQDEENQKQCQDLGAFTESMVVFGCPN
notes: N-terminal Gly-Ser cloning scar from the BamHI site; complement C3, human, CTC (C345c) domain, res; 1517-1663; stop codon before the NotI site, no alanine extension; also called C3b/C3 CTC domain
- Kd [5]: 18.6 ± 1.6 µM

More lines, now with the values ahead:

- binding result [1]: binds
B1: catalytically inactive (S699A) double-gain-of-function (D279G, N285D) factor B mutant (enzyme, human, UniProt P00751 26-764, looked up)
chain: TPWSLARPQGSCSLEGVEIKGGSFRLLQEGQALEYVCPSGFYPYPVQTRTCRSTGSWSTLKTQDQKTVRKAECRAIHCPRPHDFENGEYWPRSPYYNVSDEISFHCYDGYTLRGSANRTCQVNGRWSGQTAICDNGAGYCSNPGIPIGTRKVGSQYRLEDSVTYHCSRGLTLRGSQRRTCQEGGSWSGTEPSCQDSFMYDTPQEVAEAFLSSLTETIEGVDAEDGHGPGEQQKRKIVLDPSGSMNIYLVLDGSGSIGASDFTGAKKCLVNLIEKVASYGVKPRYGLVTYATYPKIWVKVSEADSSNADWVTKQLNEINYEDHKLKSGTNTKKALQAVYSMMSWPDDVPPEGWNRTRHVIILMTDGLHNMGGDPITVIDEIRDLLYIGKDRKNPREDYLDVYVFGVGPLVNQVNINALASKKDNEQHVFKVKDMENLEDVFYQMIDESQSLSLCGMVWEHRKGTDYHKQPWQAKISVIRPSKGHESCMGAVVSEYFVLTAAHCFTVDDKEHSIKVSVGGEKRDLEIEVVLFHPNYNINGKKEAGIPEFYDYDVALIKLKNKLKYGQTIRPICLPCTEGTTRALRLPPTTTCQQQKEELLPAQDIKALFVSEEEKKLTRKEVYIKNGDKKGSCERDAQYAPGYDKVKDISEVVTPRFLCTGGVSPYADPNTCRGDAGGPLIVHKRSRFIQVGVISWGVVDVCKNQKRQKQVPAHARDFHINLFQVLPWLKEKLQDEDLGFL
notes: complement factor B, human; also called FB^dgf‡

- Kd [2]: 0.69 ± 0.04 µM
- Kd [3]: 6.8 ± 0.2 µM
- Kd [4]: 0.098 ± 0.002 µM
- Kd (C3 convertase C3bBb^dgf‡): 0.034 ± 0.001 µM
B2: P^N12/456, monomerized properdin (non-covalent complex of P^N12 with P^456) (complex, human)
chain 1: GSDPVLCFTQYEESSGKCKGLLGGGVSVEDCCLNTAFAYQKRSGGLCQPCRSPRWSLWSTWAPCSVTCSEGSQLRYRRCVGWNGQCSGKVAPGTLEWQLQACEDQQCCPEMGGWSGWGPWEPCSVTCSKGTRTRRRACNHPAPKCGGHCPGQAQESEACDTQQVCP
chain 2: GSVAGGWGPWGPVSPCPVTCGLGQTMEQRTCNHPVPQHGGPFCAGDATRTHICNTAVPCPVDGEWDSWGEWSPCIRRNMKSISCQEIPGQQSRGRTCRGRKFDGHRCAGQQQDIRHCYSIQHCPLKGSWSEWSTWGLCMPPCGPNPTRARQRLCTPLLPKYPPTVSMVEGQGEKNVTFWGRPLPRCEELQGQKLVVEEKRPCLHVPACKDPEEEELAAA
modifications: C-mannosylated Trp-ladder tryptophans; O-fucosylation of Thr92 and Thr151 (observed in the structure) | C-mannosylated Trp-ladder tryptophans; O-fucosylation of Thr272; N-glycosylation of Asn428
notes: N-terminal Gly-Ser cloning scar from the BamHI site; properdin, human, P^N12, res; 28-191 (N-terminal STB domain, TSR1, TSR2); stop codon before the NotI site, no alanine extension; 256-469 (TSR4, TSR5, TSR6); C-terminal extension of three alanines from the NotI site; TSR3 (res. 192-255) is absent; source: HEK293-EBNA, co-expressed (1:1 DNA ratio), purified from supernatant (Ni-Sepharose Excel, …)
